Source: patent US20100056764A1 (Novo Nordisk, published 2010)
Where “and” joins values, the source holds several entries; their conditions need not be identical. Identical values can stand only once.

Tests used:
[1] = molecular target: T1, human NKG2D (hNKG2D) on the cell surface (human, UniProt P26718 1-216); assay: cell-based or functional assay
T1 chain: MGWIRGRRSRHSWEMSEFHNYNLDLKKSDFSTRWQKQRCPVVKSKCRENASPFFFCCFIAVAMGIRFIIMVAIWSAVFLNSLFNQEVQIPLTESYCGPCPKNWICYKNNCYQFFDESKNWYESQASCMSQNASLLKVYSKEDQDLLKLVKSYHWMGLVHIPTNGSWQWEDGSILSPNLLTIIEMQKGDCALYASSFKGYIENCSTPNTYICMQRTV

[2] = molecular target: T1, human NKG2D (hNKG2D) on the cell surface; assay: flow cytometry, dose-response on NKG2D- and DAP10-expressing BaF/3 cells
[3] = molecular target: T2, recombinant NKG2D-Fc protein (R&D Systems), immobilized on a Biacore CM5 chip (human, UniProt P26718 78-216); assay: SPR (Biacore), NKG2D-Fc immobilized on CM5 chip at 1200 RU, antibody in solution, Langmuir fit
T2 construct: also called NKG2D-hFc; hFc-NKG2D; not shown: Fc portion of the purchased fusion protein
T2 sequence: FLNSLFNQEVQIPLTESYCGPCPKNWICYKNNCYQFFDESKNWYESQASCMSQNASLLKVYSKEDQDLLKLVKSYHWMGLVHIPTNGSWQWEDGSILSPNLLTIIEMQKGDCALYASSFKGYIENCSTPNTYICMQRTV
Procedure: Protein immobilisation. […] Recombinant NKG2D-Fc proteins were immobilized covalently to carboxyl groups in the dextran layer on a Sensor Chip CM5 (Biacore GE Healthcare; BR-1000-14). The sensor chip surface was activated with EDC/NHS (N-ethyl-N′-(3-dimethylaminopropyl)carbodiimidehydrochloride and N-hydroxysuccinimide (Biacore GE Healthcare; BR-1000-50)). […] Deactivation of the remaining activated groups was performed using 100 mM ethanolamine pH 8 (Biacore GE Healthcare; BR-1000-50).
[…] The resulting sensorgrams were analysed by global fitting using the Langmuir model. The dissociation constant (KD) was calculated as KD=kd/ka.

[4] = molecular target: T3, rhesus monkey NKG2D on NK and CD8+ T cells (rhesus monkey (Macaca mulatta), UniProt Q9MZJ7 1-216); assay: flow cytometry on rhesus PBMC, NK cells gated; the legend names 16F16 purified from the original hybridoma
T3 construct: whole, on cells; Target on rhesus PBMC; also called rhesus NKG2D
T3 sequence (looked up): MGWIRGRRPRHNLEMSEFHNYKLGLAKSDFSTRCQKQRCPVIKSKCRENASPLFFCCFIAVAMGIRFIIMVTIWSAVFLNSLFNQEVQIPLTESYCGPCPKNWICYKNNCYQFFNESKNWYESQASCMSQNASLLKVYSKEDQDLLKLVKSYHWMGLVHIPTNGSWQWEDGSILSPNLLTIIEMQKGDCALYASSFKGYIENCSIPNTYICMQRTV
Procedure: (§1) Flow cytometry assay—man and monkey PBMC. Perifieral blood mononuclear cells (PMBCs) were isolated from humans, or from Cynomologous or Rhesus monkey. All animal work were performed according to Danish National Research Council guidelines.

[5] = molecular target: T4, cynomolgous monkey NKG2D on NK, CD8+ T and gamma-delta T cells (cynomolgous monkey (Macaca fascicularis), UniProt P61252 1-216); assay: flow cytometry on cynomolgous PBMC, NK cells gated; the legend names 16F16 purified from the original hybridoma
T4 construct: whole, on cells; Target on cynomolgous PBMC and whole blood cells; also called cynomologous NKG2D; cyno NKG2D
T4 sequence (looked up): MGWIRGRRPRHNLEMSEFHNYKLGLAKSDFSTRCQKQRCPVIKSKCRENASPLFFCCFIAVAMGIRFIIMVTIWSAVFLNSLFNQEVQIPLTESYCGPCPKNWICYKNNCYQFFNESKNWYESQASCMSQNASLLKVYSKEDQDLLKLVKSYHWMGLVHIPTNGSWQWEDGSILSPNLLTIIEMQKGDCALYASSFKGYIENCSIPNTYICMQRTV
Procedure: as §1

[6] = molecular target: T1, human NKG2D (hNKG2D) on the cell surface; assay: flow cytometry blocking assay on NKG2D/DAP10-expressing BaF/3 cells: pre-incubation with the antibody, then 1 µg MICA-mFc; y axis % remaining MICA-Fc binding
Procedure: Flow cytometry assays—MICA blockade. […] The cells were then analysed on a B&D FACSArray flow cytometer. The degree of reduction of MICA binding by preincubation was analysed as MFI (mean fluorescence intensity) of binding with pre-incubation in % of binding of MICA without preincubation.

EC50 [2]: 0.051 µg/mL and ~0.34 nM | Kd [3]: 0.178 nM | binding result [4]: binds | binding result [5]: binds | IC50 (read off the curve) [6]: ~0.02 nM
B1: 16F16, fully human anti-hNKG2D monoclonal antibody, recombinantly expressed as IgG4 isotype (antibody, V domains shown)
VH: EVQLVESGGGLVKPGGSLRLSCAASGFTFSSYSMNWVRQAPGKGLEWVSSITSSSSYIYYADSVKGRFTISRDNAKNSLYLQMNSLRAEDTAVYYCARDRRYFDWFPLDYRGQGTLVTVSS
VL: DIQMTQSPSSLSASVGDRVTITCRASQGISSWLAWYQQKPEKAPKSLIYAASSLQSGVPSRFSGSGSGTDFTLTISSLQPEDFATYYCQQYNGYPYTFGQGTKLEIKR
notes: also called 16F16 IgG4; 16F16 (IgG4)
EC50 (µg/ml), inhibition of NK cell killing of MICA-expressing target cells (51Cr release) [1]: 0.14 µg/mL | EC50 (µg/ml), inhibition of NK cell killing of ULPB3-expressing target cells (51Cr release) [1]: 0.35 µg/mL
